{
  "source": "paper PMC6454087",
  "target": "mouse rec1c sNASP variant protein (V281I, L282F) (mouse)",
  "experiment": "BLI; Octet K2, 30 C; sNASP WT or variant immobilised on aminopropylsilane (APS) biosensors, histones in assay buffer at various concentrations (62.5 to 1,000 nM shown for H4), association 240 s; n = 4",
  "data": [
    {"binder": "mouse histone H1a (natural protein) MSETAPVAQAASTATEKPAAAKKTKKPAKAAAPRKKPAGPSVSELIVQAVSSSKERSGVSLAALKKSLAAAGYDVEKNNSRIKLGLKSLVNKGTLVQTKGTGAAGSFKLNKKAESKAITTKVSVKAKASGAAKKPKKTAGAAAKKTVKTPKKPKKPAVSKKTSKSPKKPKVVKAKKVAKSPAKAKAVKPKASKAKVTKPKTPAKPKKAAPKKK", "values": [
      {"measurement": "Kd", "result": 412, "unit": "nM"},
      {"measurement": "kon", "result": 9590, "unit": "M⁻¹ s⁻¹"}
    ]}
  ]
}
